{"source": "patent US20090270312A1", "about": "“HIV-I GP41 FUSION PEPTIDES FOR IMMUNOMODULALTION” (priority 2005, published 2009)", "binders": {"B1": {"name": "FP (full length) conjugated to Rhodamine (peptide)", "peptide": "AVGIGALFLGFLGAAGSTMGARSMTLTVQARQL", "modifications": "not checked"}}, "molecular_target": "TCR on the membrane of A2b T cells (rat)", "experiment": "acceptor-photobleaching FRET; distance is between Rho on the peptide and FITC on the anti-TCR antibody"}
{"binder": "B1", "values": [{"measurement": "donor-acceptor distance inferred from FRET", "value": "< 50", "unit": "Å"}]}
